The Kd is the concentration at which binding is half-saturated. A higher Kd goes with a looser complex.

Data on one molecule can be found in paper PMC9478404, “Cyclin-dependent kinase-mediated phosphorylation and the negative regulatory domain of transcription factor B-Myb modulate its DNA binding” (The Journal of Biological Chemistry, 2022).

For the test, the target named is T1, B-Myb negative regulatory domain NRD^440–600 (human, UniProt P10244-1 440-600).
T1 construct: human B-Myb (MYBL2), negative regulatory domain, amino acids 440 to 600; source: E. coli, purified (Glutathione Sepharose, Q-sepharose, TEV cleavage, Superdex-75); not shown: GST, N-terminal, cleaved
Kind of test: ITC; DBD (500 μM) titrated into NRD (50 μM) at 19 °C; 150 mM NaCl, 20 mM Tris, 1 mM BME (pH 8); MicroCal VP-ITC; mean of three technical replicates. The settings on record: both partners purified.

T1 sequence (P10244 440-600): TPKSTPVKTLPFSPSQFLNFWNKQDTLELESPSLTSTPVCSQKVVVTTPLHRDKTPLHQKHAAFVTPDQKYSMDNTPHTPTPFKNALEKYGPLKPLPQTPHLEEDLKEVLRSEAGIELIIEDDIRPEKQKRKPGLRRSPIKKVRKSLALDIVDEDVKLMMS

B1: B-Myb DNA-binding domain (B-Myb^34–183) (domain or fragment)
chain: not shown
notes: Limits 34-183 are printed for 'the DBD alone' in the FP experiment; also called DBD; B-Myb DBD; source: E. coli, purified (Glutathione Sepharose, Q-sepharose, TEV cleavage, Superdex-75); not shown: GST, N-terminal, cleaved
Turning to B1, binding was characterised by a dissociation constant (Kd) of 4.5 µM. In other words, the single-digit micromolar range.
